Laboratory results taken from publication PMC2717645.

Biological target: taxol-stabilized microtubules (bovine brain tubulin) (bovine) (UniProt Q6B856)
Assay: co-sedimentation

B1: recombinant LC1 (natural protein)
chain: MAKATTIKDAIRIFEERKSVVATEAEKVELHGMIPPIEKMDATLSTLKACKHLALSTNNIEKISSLSGMENLRILSLGRNLIKKIENLDAVADTLEELWISYNQIASLSGIEKLVNLRVLYMSNNKITNWGEIDKLAALDKLEDLLLAGNPLYNDYKENNATSEYRIEVVKRLPNLKKLDGMPVDVDEREQANVARGG
B1 was tested, and the stoichiometry N (LC1 per tubulin monomer) was 1.06.
